In the supplement of paper PMC5998384:

Tests used:
HeLa Kyoto [1] = experiment: solubility in G1/S (NP-40 vs SDS abundance) (log2 ratio); higher = more soluble; conditions: cell cycle stage: G1/S
HeLa Kyoto [2] = experiment: melting temperature (median over replicates), in situ; higher = more thermally stable
HeLa Kyoto [3] = experiment: solubility change mitosis vs G1/S (difference of NP-40 vs SDS log2 ratios) (log2 ratio difference); higher = more soluble in mitosis
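Wherever melting temperature (median over replicates), in situ is given: HeLa Kyoto cells synchronized by double thymidine or nocodazole block, proteins quantified by TMT10plex mass spectrometry, three independent biological replicates.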
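Wherever solubility change mitosis vs G1/S (difference of NP-40 vs SDS log2 ratios) is given: synchronized HeLa Kyoto cells (double thymidine block for G1/S, nocodazole release for mitosis), protein amounts in NP-40 versus SDS lysates quantified by mass spectrometry, three biological replicates.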
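Wherever solubility in G1/S (NP-40 vs SDS abundance) is given: HeLa Kyoto cells arrested at G1/S by double thymidine block, proteins quantified by TMT10plex mass spectrometry in mild NP-40 versus SDS extracts, three biological replicates.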

Sequence of GNPTG (chain, as listed by the source): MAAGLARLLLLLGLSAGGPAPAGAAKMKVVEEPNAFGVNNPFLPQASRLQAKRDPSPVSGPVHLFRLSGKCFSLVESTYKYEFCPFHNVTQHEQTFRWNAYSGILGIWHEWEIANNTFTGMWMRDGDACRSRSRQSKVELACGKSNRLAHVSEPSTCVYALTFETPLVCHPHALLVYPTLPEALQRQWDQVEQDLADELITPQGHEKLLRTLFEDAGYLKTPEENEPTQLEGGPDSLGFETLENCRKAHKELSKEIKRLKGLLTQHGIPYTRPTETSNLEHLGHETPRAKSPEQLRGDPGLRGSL

| Substance | solubility in G1/S (log2) (HeLa Kyoto [1]) | melting temperature (HeLa Kyoto [2]; cell cycle stage: G1/S) | melting temperature (HeLa Kyoto [2]; cell cycle stage: mitosis) | solubility change mitosis (log2) (HeLa Kyoto [3]) |
| --- | --- | --- | --- | --- |
| MAAPEAWRARSCWFCEVAAATTMEATSREAAPAKSSASGPNAPPALFELCGRAVSAHMGVLESGVWALPGPILQSILPLLNIYYLERIEETALKKGLSTQAIWRRLWDELMKTRPSSLESVTCWRAKFMEAFFSHVLRGTIDVSSDRRLCDQRFSPLLHSSRHVRQLTICNMLQGATELVAEPNRRVLETLASSLHTLKFRHLLFSDVAAQQSLRQLLHQLIHHGAVSQVSLYSWPVPESALFILILTMSAGFWQPGPGGPPCRLCGEASRGRAPSRDEGSLLLGSRRPRRDAAERCAAALMASRRKSEAKQMPRAAPATRVTRRSTQESLTAGGTDLKRELHPPATSHEAPGTKRSPSAPAATSSASSSTSSYKRAPASSAPQPKPLKRFKRAAGKKGARTRQGPGAESEDLYDFVFIVAGEKEDGEEMEIGEVACGALDGSDPSCLGLPALEASQRFRSISTLELFTVPLSTEAALTLCHLLSSWVSLESLTLSYNGLGSNIFRLLDSLRALSGQAGCRLRALHLSDLFSPLPILELTRAIVRALPLLRVLSIRVDHPSQRDNPGVPGNAGPPSHIIGDEEIPENCLEQLEMGFPRGAQPAPLLCSVLKASGSLQQLSLDSATFASPQDFGLVLQTLKEYNLALKRLSFHDMNLADCQSEVLFLLQNLTLQEITFSFCRLFEKRPAQFLPEMVAAMKGNSTLKGLRLPGNRLGNAGLLALADVFSEDSSSSLCQLDISSNCIKPDGLLEFAKRLERWGRGAFGHLRLFQNWLDQDAVTAREAIRRLRATCHVVSDSWDSSQAFADYVSTM [LRRC41] | -0.31 | 47.9 °C | 49.5 °C | 0.0944 |
| MSATSVDTQRTKGQDNKVQNGSLHQKDTVHDNDFEPYLTGQSNQSNSYPSMSDPYLSSYYPPSIGFPYSLNEAPWSTAGDPPIPYLTTYGQLSNGDHHFMHDAVFGQPGGLGNNIYQHRFNFFPENPAFSAWGTSGSQGQQTQSSAYGSSYTYPPSSLGGTVVDGQPGFHSDTLSKAPGMNSLEQGMVGLKIGDVSSSAVKTVGSVVSSVALTGVLSGNGGTNVNMPVSKPTSWAAIASKPAKPQPKMKTKSGPVMGGGLPPPPIKHNMDIGTWDNKGPVPKAPVPQQAPSPQAAPQPQQVAQPLPAQPPALAQPQYQSPQQPPQTRWVAPRNRNAAFGQSGGAGSDSNSPGNVQPNSAPSVESHPVLEKLKAAHSYNPKEFEWNLKSGRVFIIKSYSEDDIHRSIKYSIWCSTEHGNKRLDSAFRCMSSKGPVYLLFSVNGSGHFCGVAEMKSPVDYGTSAGVWSQDKWKGKFDVQWIFVKDVPNNQLRHIRLENNDNKPVTNSRDTQEVPLEKAKQVLKIISSYKHTTSIFDDFAHYEKRQEEEEVVRKERQSRNKQ [YTHDF1] | 0.14 | – | 47.8 °C | -0.0272 |
| GNPTG | -0.582 | 54 °C | 53.9 °C | 0.688 |
| MSSRSTKDLIKSKWGSKPSNSKSETTLEKLKGEIAHLKTSVDEITSGKGKLTDKERHRLLEKIRVLEAEKEKNAYQLTEKDKEIQRLRDQLKARYSTTTLLEQLEETTREGERREQVLKALSEEKDVLKQQLSAATSRIAELESKTNTLRLSQTVAPNCFNSSINNIHEMEIQLKDALEKNQQWLVYDQQREVYVKGLLAKIFELEKKTETAAHSLPQQTKKPESEGYLQEEKQKCYNDLLASAKKDLEVERQTITQLSFELSEFRRKYEETQKEVHNLNQLLYSQRRADVQHLEDDRHKTEKIQKLREENDIARGKLEEEKKRSEELLSQVQFLYTSLLKQQEEQTRVALLEQQMQACTLDFENEKLDRQHVQHQLHVILKELRKARNQITQLESLKQLHEFAITEPLVTFQGETENREKVAASPKSPTAALNESLVECPKCNIQYPATEHRDLLVHVEYCSK [CEP55] | 0.417 | 48.1 °C | 48.9 °C | 0.238 |
| MLGLCGQRLPAAWVLLLLPFLPLLLLAAPAPHRASYKPVIVVHGLFDSSYSFRHLLEYINETHPGTVVTVLDLFDGRESLRPLWEQVQGFREAVVPIMAKAPQGVHLICYSQGGLVCRALLSVMDDHNVDSFISLSSPQMGQYGDTDYLKWLFPTSMRSNLYRICYSPWGQEFSICNYWHDPHHDDLYLNASSFLALINGERDHPNATVWRKNFLRVGHLVLIGGPDDGVITPWQSSFFGFYDANETVLEMEEQLVYLRDSFGLKTLLARGAIVRCPMAGISHTAWHSNRTLYETCIEPWLS [PPT2] | 0.733 | 56.4 °C | 55.9 °C | -0.131 |
| MRASLLLSVLRPAGPVAVGISLGFTLSLLSVTWVEEPCGPGPPQPGDSELPPRGNTNAARRPNSVQPGAEREKPGAGEGAGENWEPRVLPYHPAQPGQAAKKAVRTRYISTELGIRQRLLVAVLTSQTTLPTLGVAVNRTLGHRLERVVFLTGARGRRAPPGMAVVTLGEERPIGHLHLALRHLLEQHGDDFDWFFLVPDTTYTEAHGLARLTGHLSLASAAHLYLGRPQDFIGGEPTPGRYCHGGFGVLLSRMLLQQLRPHLEGCRNDIVSARPDEWLGRCILDATGVGCTGDHEGVHYSHLELSPGEPVQEGDPHFRSALTAHPVRDPVHMYQLHKAFARAELERTYQEIQELQWEIQNTSHLAVDGDQAAAWPVGIPAPSRPASRFEVLRWDYFTEQHAFSCADGSPRCPLRGADRADVADVLGTALEELNRRYHPALRLQKQQLVNGYRRFDPARGMEYTLDLQLEALTPQGGRRPLTRRVQLLRPLSRVEILPVPYVTEASRLTVLLPLAAAERDLAPGFLEAFATAALEPGDAAAALTLLLLYEPRQAQRVAHADVFAPVKAHVAELERRFPGARVPWLSVQTAAPSPLRLMDLLSKKHPLDTLFLLAGPDTVLTPDFLNRCRMHAISGWQAFFPMHFQAFHPAVAPPQGPGPPELGRDTGRFDRQAASEACFYNSDYVAARGRLAAASEQEEELLESLDVYELFLHFSSLHVLRAVEPALLQRYRAQTCSARLSEDLYHRCLQSVLEGLGSRTQLAMLLFEQEQGNST [CHPF] | -0.013 | 53.4 °C | 52 °C | 0.15 |
| MAAPEAPPLDRVFRTTWLSTECDSHPLPPSYRKFLFETQAADLAGGTTVAAGNLLNESEKDCGQDRRAPGVQPCRLVTMTSVVKTVYSLQPPSALSGGQPADTQTRATSKSLLPVRSKEVDVSKQLHSGGPENDVTKITKLRRENGQMKATDTATRRNVRKGYKPLSKQKSEEELKDKNQLLEAVNKQLHQKLTETQGELKDLTQKVELLEKFRDNCLAILESKGLDPALGSETLASRQESTTDHMDSMLLLETLQEELKLFNETAKKQMEELQALKVKLEMKEERVRFLEQQTLCNNQVNDLTTALKEMEQLLEM [KNSTRN] | 0.269 | 48.7 °C | 50.5 °C | 0.517 |
| MGREFGNLTRMRHVISYSLSPFEQRAYPHVFTKGIPNVLRRIRESFFRVVPQFVVFYLIYTWGTEEFERSKRKNPAAYENDK [UQCRQ] | -0.497 | 53.1 °C | 51.8 °C | -0.186 |
| MELHILEHRLQVASVAKESIPLFTYGLIKLAFLSSKTRCKFFSLTETPEDYTIIVDEEGFLELPSSEHLSVADATWLALNVVSGGGSFSSSQPIGVTKIAKSVIAPLADQNISVFMLSTYQTDFILVRERDLPFVTHTLSSEFTILRVVNGETVAAENLGITNGFVKPKLVQRPVIHPLSSPSNRFCVTSLDPDTLPAVATLLMDVMFYSNGVKDPMATGDDCGHIRFFSFSLIEGYISLVMDVQTQQRFPSNLLFTSASGELWKMVRIGGQPLGFDECGIVAQISEPLAAADIPAYYISTFKFDHALVPEENINGVISALKVSQAEKH [GATSL2] | 0.084 | 56.4 °C | 57.8 °C | -0.149 |
| MAMVVSTWRDPQDEVPGSQGSQASQAPPVPGPPPGAPHTPQTPGQGGPASTPAQTAAGGQGGPGGPGSDKQQQQQHIECVVCGDKSSGKHYGQFTCEGCKSFFKRSVRRNLSYTCRANRNCPIDQHHRNQCQYCRLKKCLKVGMRREAVQRGRMPPTQPTHGQFALTNGDPLNCHSYLSGYISLLLRAEPYPTSRFGSQCMQPNNIMGIENICELAARMLFSAVEWARNIPFFPDLQITDQVALLRLTWSELFVLNAAQCSMPLHVAPLLAAAGLHASPMSADRVVAFMDHIRIFQEQVEKLKALHVDSAEYSCLKAIVLFTSDACGLSDVAHVESLQEKSQCALEEYVRSQYPNQPTRFGKLLLRLPSLRTVSSSVIEQLFFVRLVGKTPIETLIRDMLLSGSSFNWPYMAIQ [NR2F2] | -0.00984 | – | 50.3 °C | -0.152 |
| MRDNTSPISVILVSSGSRGNKLLFRYPFQRSQEHPASQTSKPRSRYAASNTGDHADEQDGDSRFSDVILATILATKSEMCGQKFELKIDNVRFVGHPTLLQHALGQISKTDPSPKREAPTMILFNVVFALRANADPSVINCLHNLSRRIATVLQHEERRCQYLTREAKLILALQDEVSAMADGNEGPQSPFHHILPKCKLARDLKEAYDSLCTSGVVRLHINSWLEVSFCLPHKIHYAASSLIPPEAIERSLKAIRPYHALLLLSDEKSLLGELPIDCSPALVRVIKTTSAVKNLQQLAQDADLALLQVFQLAAHLVYWGKAIIIYPLCENNVYMLSPNASVCLYSPLAEQFSHQFPSHDLPSVLAKFSLPVSLSEFRNPLAPAVQETQLIQMVVWMLQRRLLIQLHTYVCLMASPSEEEPRPREDDVPFTARVGGRSLSTPNALSFGSPTSSDDMTLTSPSMDNSSAELLPSGDSPLNQRMTENLLASLSEHERAAILSVPAAQNPEDLRMFARLLHYFRGRHHLEEIMYNENTRRSQLLMLFDKFRSVLVVTTHEDPVIAVFQALLP [NPRL3] | -0.108 | 50.8 °C | 52.5 °C | 0.129 |
| MASSAASSEHFEKLHEIFRGLHEDLQGVPERLLGTAGTEEKKKLIRDFDEKQQEANETLAEMEEELRYAPLSFRNPMMSKLRNYRKDLAKLHREVRSTPLTATPGGRGDMKYGIYAVENEHMNRLQSQRAMLLQGTESLNRATQSIERSHRIATETDQIGSEIIEELGEQRDQLERTKSRLVNTSENLSKSRKILRSMSRKVTTNKLLLSIIILLELAILGGLVYYKFFRSH [VTI1B] | 0.392 | 53.5 °C | 52.5 °C | 0.188 |
| MEELTIWEQHTATLSKDPRRGFGIAISGGRDRPGGSMVVSDVVPGGPAEGRLQTGDHIVMVNGVSMENATSAFAIQILKTCTKMANITVKRPRRIHLPATKASPSSPGRQDSDEDDGPQRVEEVDQGRGYDGDSSSGSGRSWDERSRRPRPGRRGRAGSHGRRSPGGGSEANGLALVSGFKRLPRQDVQMKPVKSVLVKRRDSEEFGVKLGSQIFIKHITDSGLAARHRGLQEGDLILQINGVSSQNLSLNDTRRLIEKSEGKLSLLVLRDRGQFLVNIPPAVSDSDSSPLEDISDLASELSQAPPSHIPPPPRHAQRSPEASQTDSPVESPRLRRESSVDSRTISEPDEQRSELPRESSYDIYRVPSSQSMEDRGYSPDTRVVRFLKGKSIGLRLAGGNDVGIFVSGVQAGSPADGQGIQEGDQILQVNDVPFQNLTREEAVQFLLGLPPGEEMELVTQRKQDIFWKMVQSRVGDSFYIRTHFELEPSPPSGLGFTRGDVFHVLDTLHPGPGQSHARGGHWLAVRMGRDLREQERGIIPNQSRAEQLASLEAAQRAVGVGPGSSAGSNARAEFWRLRGLRRGAKKTTQRSREDLSALTRQGRYPPYERVVLREASFKRPVVILGPVADIAMQKLTAEMPDQFEIAETVSRTDSPSKIIKLDTVRVIAEKDKHALLDVTPSAIERLNYVQYYPIVVFFIPESRPALKALRQWLAPASRRSTRRLYAQAQKLRKHSSHLFTATIPLNGTSDTWYQELKAIIREQQTRPIWTAEDQLDGSLEDNLDLPHHGLADSSADLSCDSRVNSDYETDGEGGAYTDGEGYTDGEGGPYTDVDDEPPAPALARSSEPVQADESQSPRDRGRISAHQGAQVDSRHPQGQWRQDSMRTYEREALKKKFMRVHDAESSDEDGYDWGPATDL [TJP3] | -0.105 | 50.3 °C | 50.8 °C | 0.0692 |
| MPKTMHFLFRFIVFFYLWGLFTAQRQKKEESTEEVKIEVLHRPENCSKTSKKGDLLNAHYDGYLAKDGSKFYCSRTQNEGHPKWFVLGVGQVIKGLDIAMTDMCPGEKRKVVIPPSFAYGKEGYAEGKIPPDATLIFEIELYAVTKGPRSIETFKQIDMDNDRQLSKAEINLYLQREFEKDEKPRDKSYQDAVLEDIFKKNDHDGDGFISPKEYNVYQHDEL [FKBP7] | 0.654 | 55 °C | 55.8 °C | 0.0889 |
